Measurements as given in the domain aggregation screens of Martell et al. (2025).

Experiment: soluble fraction after stress (log2 fold change); higher = more stays soluble; pooled small domains, quantitative proteomics
Conditions: stress: 75 degC
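Also: 20 min heating vs room temperature control held 20 min.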

Sequence	soluble fraction (log2)
HMQAKNGTVTGSVVNVRGGAGTQYAVKGKASRGTKVTILGQQSSWLNVRLDNGVTGWIHADYVQISE	0.592
HMQAPHLALSPREFQVLQGLLAGDALDIIAERLHLSAKTVSNHQTLIRQKLGVGNAVELLRYAQLHRL	-2.49
HMQAPIFMNETDGKWYFREKYLNDNHEIAYRVHPEGYDQMEDALRNSVNALNEFAAEMKELRKQV	-0.0803
HMQAPVVNHDLIKSFERQWREIKATAKGKVRSVNLSDARSILQSFLNTLQKGPGTDSLISSVQNELSLIA	-0.17
HMQARDQNVDEGKALLEKEFSRLALENLDRDKLANAVNYPTRDDMYAAIGAGDLRVGQVLHQAQQLF	0.226
HMQASTGNVNTETLNLRKEASTSADILKLLSQGDEVEIVSESNGWYKVKYKDTEGFVSKEYITVN	1.02
HMQATETFSLIVPMSSAGNRLDVVLSELLPNFSRKKIQDAIKNGDATLNGKAPKIRDKVYGGENITITLIL	-2.55
HMQAVDPLELRAGDFVVHEQHGIGRYVEMVQRTIGGITREYLVIEYAPAKRGQPNDRVFVPTDTLEQVS	-0.654
HMQAVKQIKVERGMTLEKIAQSEFGDSTRWGEIVEVNNLRAPYISDDPTETRDGVLKPGSNLLIPIP	-0.0397
HMQDEAQLSMSNKYIFEGNSIVKDNFIEAEKKYRLGVSAKPNNAVGSYNLANAYYNSKLYDEAMLRLL	0.379
HMQDEREEIAVEDVVGMPLWQARKVIADQGFRVLDDGAGDIVIAQMPSGGGKLIEGGQVMLYTYTD	0.687
HMQDFEEILKNAKIEDFKHTQTGEDLKVLKIEDKIEDFKGFNAYLVKNQIAYYSKFARGFVVKNIEKLQGV	0.202
HMQDFEQNLFDGKSIYDRMLSKFSLHNVDVKQLVAHFKRKDTEQFFADIGRGLITSAQMLGFLQT	-0.0166
HMQDLVAVPALTGLTENDAINKAKANNLIAVVSEYKTENSVEPGKVLEQDPESSTEVKKGTIIKLVVS	0.756
HMQDQVTLIVQVNGKLRGQISISTDATKELIEQTALANENVQKFVDGQSIKKIIIVPGRLVNIV	-0.939
HMQDRDKNVPAGKELLDNEIARLNMSLKQVEQFALPRYNLKTLEDLYSGIGSGDIRLNHLINFLQSKLI	0.338
HMQDREIHIHAGREVLEKELSRLSLHLKNTNLQEYAARFNVKTAEDILAGIGAGDIRPAHVVNLIADKL	-0.0928
HMQDSSGENNPQSKLTQQQVDLLMKDLKETNVEFDKLAEKYNVSIKTIRNVNTGIAWRKNDITYPIREP	-0.407
HMQDTQAEEGETLLDALRRIHPESSTGTLRRMLTQGRVQLDGDSVHAAKTVLSAGQRVEVVAR	-0.143
HMQDTTLTSQILRVPSSVNINDLANVLKSLAGKNTVVAPYKAANTIIITGYAPNVRRVLSLANELIPRLDV	-1.18
HMQEAGLITQRIREMREKENWTQEYMAEQLGMSENGYAKIERGESNLSLKRLQQIADIFEVESAELLK	0.00448
HMQEDKSKYLFQRGTAITVLRPAGIVRIGKERVDAVSNGSYIDRGVAVRVIEVEGTRVVVEPVPE	0.0187
HMQEEMIRGDIKLNTVMQTVHLAVGTETERNWQPVETTAKEFELLKLLMENPGVTLKKEYLFHMLI	-0.101
HMQEESISWKEFLELDIIGDKKKRLKVYDLFHLGYGNAKTLFKRLNMVGISREMIEKELENEGY	-1.39
HMQEKIREVANRIRELRESLEVSPEEMADHLKVTIGTYIEYERGEADIPASVLFGIAHRLNVDMAVLL	-1.36
HMQEKLELIIPVSSIGKRADVAIQDLLSSYSRAKIQEWIKSGFILLESKKISPKDIFMGGERVFIDIQQDE	-1.86

Sequence	soluble fraction (log2)
HMQELVPGKVFEGTVTEMKNGQVTLGLSDGKTISARMEQGVSLAKGQPMLFEVKSNTGEQIAIRPVVL	0.263
HMQENKVLEGKVLEKKKKKVFVDLSPFGVGVIRGVNYLEAKNELKDIEEGDNIKVRVLEIDNENGFIELAL	-0.121
HMQERQREGFVQQLRGKYSGQVVMRLFPELQGKALGEFMRKFEAQWEDHEAVLAAMEAHEIESRLKVFK	-1.57
HMQETALANFETNEGVQKVKQYVQENVPSLRGSNIVGVWTSYTPEGLTNYRTRFLTQDGQFVEVNLAYQ	-0.203
HMQETIDVAALRVGMFVHLDLGWLAHPFPLSSFRISSEDQISTIRALGLKRVRWSSQHSELG	-1.29
HMQETKDEGAQVLLNKINALVAAVQGQIITPEEAAIKLATDGDLDLDVDARVAAIEEFNKKLSEAQNN	0.101
HMQEVILEKIQLTYLSADKLSKMAEQFSIPVKMYWVDENPMMLMVMGNESDIATFKKVLTQIDIPENKS	-0.268
HMQFHQDNYALEFIRDLQPVDGAIILSRFKQFDLVELEKAKKIKFSDEHMAWTLYDYDIKKIN	-1.95
HMQFLKPQDVLFLLKLVVLKGPASIFPAVPESLGLSKAEVHNSAKRVRGARLLPHDSWNPLRKNLLEFL	-0.488
HMQFQVHEIKGKEYYIHVVEKGNTLYAISRMYSVPIETLKEENPRLNTTELTIGDRLLIPLDEVKRKNIE	-0.833
HMQFYSGLEARLMDPNTPEVFDDPISLMAFLQQKNISRVELEDNLLLPYLKEMAGQPIPKAELLEIIRK	-0.815
HMQGDHELSQRILSYLSEQGGSSPLTDKASPEEIYRIFRVSKKKYKQALGNLYKSKSIIILADKIQLL	-3.2
HMQGEDEILKIHEALEELAQIDARLVRVVEMRYFVGLSNQEIADSLGVTTRTVERDWEKARTFLFNALHP	-1.86
HMQGISGIERSLLDALAFEPAGLDALQARTGLDTPTLQALLMGLELQGHVARLPGSLFQRLVR	-0.9
HMQGVTVPDLTRVSLEEAVATISSLGLRYEISDRRSNAAFPANYVLDQAPGANTIVKPNRKVYLTVNAA	-0.162
HMQGWREWDYSADLYINARVGGKIEPTENSPISRVYELDEPVSVVAFTSTRYFKLSSGDYIFAEYLSAQKV	-4.29
HMQGYELKMYVTPDTKYSVAVYDAKNEMVSYTMGFSAKAPFGQEGEVLETVKLEFDKLAVGNYELKYWI	0.258
HMQHYQFEVDEASSKKRLDVFLSENLPEISRSRLKKLIDEKRVTVNEMSRPAGYKVRVKEKIEFHIPPL	-0.718
HMQIAEAESLGQRLLQQSINNIVGRDEAITEERLNRVLSQYSLTGRDELMAQIGLGNRNSSLVAKAMYDI	-0.0772
HMQIKEVDYGTFISMTEDGEIGRVEIQQQENTILFTDEDETAVYKTAMVEDDQLTQRLYDAGISFYGEE	0.0917
HMQILVEGVEANQRLDLFLRARLTEFSRSRIQGLVKNGNVLVNGNIARQAYLVQVGDKIELDVPEPVA	-0.603
HMQIMVVDEADRMLDMGFIPDIERIFQLTPFTRQTLFFSATMAPEIERITDTFLHSPERIEVAR	-0.255
HMQISDDGFILKIINEVVAENPKSISDYISGKEAAVGFLVGQIMKKTRGKANPKLVNEMLITELAKLKN	0.0585
HMQISDESSIAKIADEVISEFPSQVSEFRSGKEKVLQFLIGQVMKKTKGKANPQITAKILREKLS	0.00566
HMQISDSASVKTVVAEAIAANPKAVADFMNGKDTATRYLVGQVMKITKGQAKPELVNQLVLESLAELKEK	0.361
HMQISDSGELEKIVLQVIEENPKPAEQVRSGNEKAIGALVGGVMKATQGRADGGEVNRLLRQHLGL	0.248

Sequence	soluble fraction (log2)
HMQISDVSLIAKVIDDVIDNNVKSVSDYLEGNLNVLRFLVGQVMKETKGKANPQKATELLQEKLESLNN	-0.896
HMQISLDTKLINLEFSVRANNVFRENQIFTLRDLTSHSKEDLMLMTNFGKTTLYEVNKKLEEHQLKLSQ	-2.43
HMQISNEEELEKIIENVIESNPEKVKAYQSGKSGLIGFFMGQVMKESGGQANPNLVNQILKGKL	0.109
HMQIYSQEIYDAQKVLKELGLYTSDLDGLNGPGTKRALRNFQSKSGLNADGVLGPLTKSALDKGEESYITV	-0.0827
HMQKADFDYGDYVDLGLAMGRQSRQLREAVGIKLGIGYANSKRFYQRLQTFGISLAELKQAVEEAENDQQN	-1.12
HMQKEMDIVLQINGKMRSNLKVSSTANDDEIIKTAIESDAYKKFSLGLRIQKTIIVPNRLINIVLEK	-3.24
HMQKIYTIARGDTLSHIVAGTLKQQGIAYTTGELYRLVNVVAQYNDILNPNRIYTGHQLDLTPLYSED	-0.15
HMQKLLGPFEDFVKIKLDKYPDTKAAQMHDWLKEHYPDFPEVTPKTVYNFVMYVRQRHNIPIPD	-0.359
HMQKTVLAASVYERMKERIMDQYYPPGERLNIDALAIDLAVSPTPIREALARLAAERLITFEAYKGYRVSP	-3.38
HMQLEPLVTSVIPVNFAKASDISGTIKGKEVGLLSERGNITAENRTNVLIVKDIRKSVDEINAMVKRLD	0.0272
HMQLFKFKNAMMELAKNKNITLDTAEKAIGLEAGFTELVARGVKELALSDVIKISKYFNTTMDSVLD	-1.44
HMQLPFTPREHEITQLLSRGLSNRQIAEALSLSVRTVEGHIYQASTKLGISSRSELAVLVGQFA	-1.94
HMQLSQLLQPFDINAFKGHPLYTEENVKMFNDYTNRVKEWTKGTPYEQYWVTKEGQPTMLAWDSFKK	-1.28
HMQLTQEAIENLFKITTAKKFREELEKLVVTDSEKKAFAYFTVYHPKLKELPFAILKSVENYTGISI	-0.963
HMQLVPGIGRLSARELEVFTLIGRGLGTSEIGKKLGVSAYTVQTHRNHIKEKLNLPNAAAITYWAIQWAHG	-2.27
HMQMEDTDALLQVAKEVVAENQDTVEAYLGGREKAFASLIGAAMKKTRGKANPKVIRQLILDLIQ	0.564
HMQMEISQRIKLERQTLKWTQEELADKIFVSKRTISNWETGRTVPDIESVLRLAKVFHVSLEDLLL	-4.46
HMQMEYEKAIAYILDKIKSGELSIGSKLPAERVIADTLHIGRNSTREALSILHGMGMVDRVHGSGNYISEH	-0.752
HMQMLQDPFLNALRKEHVPVSIYLVNGIKLQGQVESFDQYVVLLRNTSVTQMVYKHAISTIVPARAVSL	-0.748
HMQMRKENKILVTDIGEIDEVKVIFDDDNKPYLYSYNGEDEFYRPDETYKFFDNKEQAEEYVREN	0.0692
HMQMSPREKMIYSFIESHPGTKSGEIAEKLNVPLPTVKRILSEMVSGNFIAKHGSGIGTNYSTEK	0.335
HMQMSWDAVKARLQDIVNNEDKTKPFNDEMLASKLKEQGIEIARRTVVKYRQQLGIPAARLRKK	-0.752
HMQNAETPDVAAEFRTWTSADGQFQVIAKLVKLDGESVHLERQDDGRQIAVPLGKLSSEDRLFLRGVRP	-0.184
HMQNEQIAFSKFLQEVDSGRVVQVEIQGNNIKGILSDGSKFYTYSPNYPELVGKLSEKGVNIVASPVE	0.196
